Results on three substances are retold here after article PMC7343240.

In general, IC50 refers to the point on the concentration scale where inhibition reaches its midpoint. A high value points to weaker potency in that assay.

For experiment [1], the target named is IGF-1Rzip (leucine-zipper-stabilized human IGF-1R ectodomain) (human | Saccharomyces cerevisiae). The experiment in a line: cryo-EM structure; IGF-1Rzip mixed with IGF-II at a molar ratio of 1 to 1.5 (receptor homodimer to ligand) in TBSA (24.8 mM Tris-HCl pH 8.0, 137 mM NaCl, 2.7 mM KCl, 0.02% azide); single-particle reconstruction; open-leg and closed-leg 3D classes.

The target is the same in experiment [2]. Kind of experiment: europium time-resolved fluorescence competition binding assay (immunocapture); IGF-1Rzip (0.5 μg per well) captured on a plate coated with 24-31 anti-human IGF-1R antibody; Eu-IGF-I or Eu-IGF-II (~100,000 counts) with increasing concentrations of unlabelled IGF-I or IGF-II; 16 h at 4°C; one-site fit.
In experiment [3] the target is holoIGF-1R (IGF-1R holoreceptor solubilized from P6 cells) (human) (UniProt P08069). Kind of experiment: europium time-resolved fluorescence competition binding assay (immunocapture); IGF-1R solubilized from P6 cells (100 μl lysate per well) captured on a plate coated with 24-31 anti-human IGF-1R antibody; Eu-IGF-I or Eu-IGF-II (~100,000 counts) with increasing concentrations of unlabelled IGF-I or IGF-II; 16 h at 4°C; one-site fit.

Take “"Receptor grade" IGF-II (GroPep) (ligand)”: the stoichiometry N (IGF-II per receptor homodimer) in experiment [1] amounted to 1. With “human insulin-like growth factor I (IGF-I) (from UniProt P05019 49-118) (ligand)”, the IC50 in experiment [2] was 0.39 nM. In the case of “human insulin-like growth factor II (IGF-II), of Francis et al., 1993 (ligand)”, the IC50 was found to be 1.24 nM in experiment [2] and 0.85 nM in experiment [3].
